{
  "source": "paper PMC3853120",
  "about": "(Science (New York, N.Y.), 2013)",
  "binders": {"B1": {"name": "human LilrB2 (leukocyte immunoglobulin-like receptor B2) expressed on HEK293 cells (receptor, UniProt Q8N423 22-597, looked up)", "chain": "QTGTIPKPTLWAEPDSVITQGSPVTLSCQGSLEAQEYRLYREKKSASWITRIRPELVKNGQFHIPSITWEHTGRYGCQYYSRARWSELSDPLVLVMTGAYPKPTLSAQPSPVVTSGGRVTLQCESQVAFGGFILCKEGEDEHPQCLNSQPHARGSSRAIFSVGPVSPNRRWSHRCYGYDLNSPYVWSSPSDLLELLVPGVSKKPSLSVQPGPVMAPGESLTLQCVSDVGYDRFVLYKEGERDLRQLPGRQPQAGLSQANFTLGPVSRSYGGQYRCYGAHNLSSECSAPSDPLDILITGQIRGTPFISVQPGPTVASGENVTLLCQSWRQFHTFLLTKAGAADAPLRLRSIHEYPKYQAEFPMSPVTSAHAGTYRCYGSLNSDPYLLSHPSEPLELVVSGPSMGSSPPPTGPISTPGPEDQPLTPTGSDPQSGLGRHLGVVIGILVAVVLLLLLLLLLFLILRHRRQGKHWTSTQRKADFQHPAGAVGPEPTDRGLQWRSSPAADAQEENLYAAVKDTQPEDGVEMDTRAAASEAPQDVTYAQLHSLTLRRKATEPPPSQEREPPAEPSIYATLAIH"}},
  "key": {"[1]": {"molecular_target": "T1, oligomerized biotinylated synthetic human Aβ1-42 peptide (human, UniProt P05067 672-713, biotinylated (position not given))"}, "[2]": {"molecular_target": "T1, oligomerized biotinylated synthetic …", "remark": "listed apart in the source"}},
  "note": "Like-named read-outs stand apart in the source and are kept apart here.",
  "data": [
    {"binder": "B1", "values": [
      {"measurement": "Kd", "setting": "[1]", "result": "206 ± 65", "unit": "nM"},
      {"measurement": "Kd", "setting": "[2]", "result": 250, "unit": "nM"}
    ]}
  ]
}
